PMC6945068

Molecular target: ^35S-labelled in vitro-translated Flag-B56γ (X. laevis PP2A regulatory B subunit B56γ)
Assay: pull-down (amylose beads) with autoradiography quantification
Conditions: 1 h, read off a plot

MBP-fused Apc1-loop^500 wild type (residues 515-584 of Xenopus tropicalis Apc1), sequence (Q08D52 entry or part of it, stated change not applied): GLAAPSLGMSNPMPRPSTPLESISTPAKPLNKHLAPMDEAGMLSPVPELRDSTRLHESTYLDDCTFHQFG

- response (anaphase extract (Ana) supplemented with CycB∆167, 23°C, lane 16, parent: est. 3.3): 1.1 A.U.
- response (interphase extract (Inter), 23°C, lane 12, parent: est. 0.95): 1.1 A.U.
Substance: MBP-fused Apc1-loop^500 wild type (residues 515-584 of Xenopus tropicalis Apc1) (from UniProt Q08D52) T532A; T539A; S558A
